Consider one molecule from patent US20150329614A1 (Novartis, published 2015).

The assay concerns the target T1, rec. human IGF-1R (R&D Systems, 391-GR) (human, UniProt P08069 31-932).
T1 construct: Bought soluble protein, used as the analyte in SPR; also called rhIGF1R; recombinant human IGF-1R
The experiment in a line: SPR (Biacore T200), ligand immobilised on CM5 chip, rec. human IGF-1R as analyte, 1:1 model. (In general: SPR reads the build-up and loss of mass on a sensor chip optically.)

T1 sequence (P08069 31-932 limits assumed): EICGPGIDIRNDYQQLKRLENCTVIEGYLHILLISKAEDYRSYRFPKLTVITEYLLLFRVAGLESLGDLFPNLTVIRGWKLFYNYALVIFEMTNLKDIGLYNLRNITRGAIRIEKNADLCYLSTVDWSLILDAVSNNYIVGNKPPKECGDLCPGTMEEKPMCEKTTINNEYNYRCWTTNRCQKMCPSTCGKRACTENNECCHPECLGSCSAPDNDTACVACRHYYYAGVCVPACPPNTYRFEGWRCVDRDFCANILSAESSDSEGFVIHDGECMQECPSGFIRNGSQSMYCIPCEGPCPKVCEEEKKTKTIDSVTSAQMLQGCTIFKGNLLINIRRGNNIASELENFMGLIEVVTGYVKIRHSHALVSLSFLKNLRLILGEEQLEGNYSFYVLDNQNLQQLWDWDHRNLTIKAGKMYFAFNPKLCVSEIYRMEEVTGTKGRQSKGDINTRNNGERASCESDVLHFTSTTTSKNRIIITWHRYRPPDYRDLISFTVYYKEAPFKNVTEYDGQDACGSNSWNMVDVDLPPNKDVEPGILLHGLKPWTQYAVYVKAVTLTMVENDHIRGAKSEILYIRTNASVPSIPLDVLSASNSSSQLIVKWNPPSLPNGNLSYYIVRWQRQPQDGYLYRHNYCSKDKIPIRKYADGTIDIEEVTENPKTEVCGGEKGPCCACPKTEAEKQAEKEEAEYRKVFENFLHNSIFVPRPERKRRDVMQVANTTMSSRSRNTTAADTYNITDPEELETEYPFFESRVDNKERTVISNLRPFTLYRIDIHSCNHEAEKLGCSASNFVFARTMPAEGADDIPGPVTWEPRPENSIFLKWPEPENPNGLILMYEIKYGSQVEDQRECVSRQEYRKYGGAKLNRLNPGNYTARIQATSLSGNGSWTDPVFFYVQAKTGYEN
Description: The binding properties were characterized by SPR using a Biacore T200 instrument at 25° C. […] The analyte concentration ranges were adapted to the individual interaction and ranged from 1000-3.9 nM (IGF-1R). […] Kinetic rate constants and KD were calculated by fitting double-referenced sensorgrams to a 1:1 binding model.
A direct binding assay was performed. […] The resulting sensorgrams were fitted to a 1:1 interaction model to calculate the equilibrium dissociation constants (KD).

B1: hIGF-1-Ea-Fc_mut 13/2_A (Fc fusion)
chain: TLCGAELVDALQFVCGDRGFYFNKPTGYGSSSQAAPQTSIVDECCFRSCDLRRLEMYCAPLKPAVQAQQHTDMPKTQKEVHLKNASRGSAGNKNYQMCPPCPAPEAAGGPSVFLFPPKPKDTLMISRTPEVTCVVVDVSHEDPEVKFNWYVDGVEVHNAKTKPREEQYNSTYRVVSVLTVLHQDWLNGKEYKCKVSNKALPAPIEKTISKAKGQPREPQVYTLPPSREEMTKNQVSLTCLVKGFYPSDIAVEWESNGQPENNYKTTPPVLDSDGSFFLYSKLTVDKSRWQQGNVFSCSVMHEALHNHYTQKSLSLSPGK
notes: Modified human IGF-1-Ea precursor joined by hinge 1 to a hIgG1 LALA Fc
Consider B1, for which the binding result is recorded as “binds”.
